Experimental data reported in patent US20020165123A1 (published 2002).
Bridges are numbered along the chain shown (N, C = ends). Where no end group is shown, it is not given here.

Legend:
[1] = target: T1, CXC chemokine receptor 4 (CXCR4) (UniProt P61073 1-352, limits assumed); test: competition against 4 nM 125I-SDF-1 on CEM cells (FIG. 2B)
T1 construct: whole, on cells; Endogenous receptor on CEM and THP-1 cells; also called SDF-1 receptor; fusin
Experimental: SDF-1 and the indicated analogs (competing ligands, described in Examples) were added at the concentrations illustrated in the presence of 4 nM ¹²⁵I-SDF-1. CEM cells were assessed for ¹²⁵I-SDF-1 binding following 2 hr of incubation. The results are expressed as percentages of the maximal specific binding that was determined without competing ligand, and are the mean of three independent experiments.
A competitive dose response for binding to the SDF-1 receptor by native SDF-1 and the CXCR4 agonists against ¹²⁵I-SDF-1 is shown in FIGS. 2A and 2B respectively. A concentration-dependent inhibition of ¹²⁵I-SDF-1 is illustrated in FIG. 2A, indicating the affinity of SDF-1 for the receptor. […] SDF-1 and the indicated analogs (competing ligands) were added at the concentrations illustrated in the presence of 4 nM ¹²⁵I-SDF-1. CEM cells were assessed for ¹²⁵I-SDF-1 binding following 2 hr of incubation. The results are expressed as percentages of the maximal specific binding that was determined without competing ligand, and are the mean of three independent experiments. The inhibition of ¹²⁵I-SDF-1 by SDF-1 and the SDF-1 analogs is indicative of CXCR4 receptor binding. The compounds illustrated in the figure are as follows: SDF-1(1-14)-(G)₄-SDF-1(55-67)-K20/E24-cyclic amide (CTCE0021), SDF-1(1-14)-(G)₄-SDF-1(55-67)-E24/K28-cyclic amide (CTCE0022), SDF-1(1-9)₂-C9/C9-cysteine dimer (CTCE9901), SDF-1(1-17) (CTCE9902), SDF-1(1-8)₂-lysine bridge dimer (CTCE9904) and SDF-1(1-14)-(G)₄-SDF-1(55-67) amide (CTCE0017).

[2] = target: T1, CXC chemokine receptor 4 (CXCR4); test: cell-based or functional assay

T1 sequence (P61073 whole entry): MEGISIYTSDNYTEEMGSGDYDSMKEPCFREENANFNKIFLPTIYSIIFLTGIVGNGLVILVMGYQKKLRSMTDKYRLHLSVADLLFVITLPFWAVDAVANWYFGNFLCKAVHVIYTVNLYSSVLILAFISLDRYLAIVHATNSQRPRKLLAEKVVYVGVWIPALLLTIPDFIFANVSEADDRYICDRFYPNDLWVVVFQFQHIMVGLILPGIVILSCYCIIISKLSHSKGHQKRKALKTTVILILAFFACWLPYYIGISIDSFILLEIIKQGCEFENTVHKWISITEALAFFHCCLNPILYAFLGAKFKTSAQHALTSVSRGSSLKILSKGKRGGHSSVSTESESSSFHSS

| Binder | binding result [1] | EC50 of [Ca2+]i mobilization, fura-2,AM loaded THP-1 cells [2] [nM] |
| --- | --- | --- |
| KPVSLSYRCPCRFFESH (Linear peptide, free acid; also called CTCE9902) [SDF-1(1-17)] | binds |  |
| KPVSLSYRCPCRFFGGGGLKWIQEYLEKALN-NH2 (lactam 24-28; cysteine pairing not given here) [SDF-1(1-14)-(G)4-SDF-1(55-67)-E24/K28-cyclic amide] |  | 106 |
| KPVSLSYRC (also: homodimer via disulphide between Cys9 of the two chains, Homodimer of SDF-1(1-9), with free acid C-termini; also called CTCE9901) [SDF-1(1-9)2-C9/C9-cysteine dimer] | binds |  |
| KPVSLSYRK-NH2 (also: dimer: two chains' Arg8 amide-linked to one bridging lysine (alpha and epsilon amino groups), Two SDF-1(1-8) chains joined through one lysine amide; also called CTCE9904) [SDF-1(1-8)2-lysine bridge dimer] | binds |  |
| KPVSLSYRCPCRFFGGGGLKWIQEYLEKALN-OH (cysteine pairing not given here) [SDF-1(1-14)-(G)4-SDF-1(55-67) acid] |  | 188 |
| KPVSLSYRCPCRFFGGGGLKWIQEYLEKALN-NH2 (lactam 20-24; cysteine pairing not given here) [SDF-1(1-14)-(G)4-SDF-1(55-67)-K20/E24-cyclic amide] |  | 148 |
